Reference: doi:10.1101/2021.02.25.432905 (bioRxiv, 2021)

Biological target: A/California/7/2009 HA (recombinant HA, rHA) (Influenza A virus A/California/07/2009 …, UniProt C3W5X2)

B1: 350-145 (antibody, V domains shown)
VH: EVQLVESGGGLVQPGGSLRLSCSASGFTFSSYSMNWVRQAPGKGLEWLSYISSSSGSKYYADSVKGRFTISRDNAKNLVYLQMSSLRADDAAMYYCARSDYAVFYYGMDVWGQGTTVTVSS
VL: EIVMTQSPATLSVSPGERATLSCRASQSVSSNLAWYQQKPGQAPRLLIYGASTRATGIPARFSGSGSGTEFTLTISSLQSEDFAVYYCQQYYNWPPLTFGGGTKVEIK
binding result: binds
